# Laboratory results published in the supplement of paper PMC9170038.
# What was measured:
# [1] = tested on: MS2 coat protein; assay: apparent KD of MS2 coat protein; higher = weaker reporter binding; conditions: Eterna round: R107
# Description: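 RNA-MaP round R107: designed RNA switches with theophylline, tryptophan, arginine or FMN aptamers are transcribed on-chip within common flanks. They are titrated with SNAP-549-labelled MS2 coat protein in RNA-MaP buffer (100 mM Tris pH 7.5, 80 mM KCl, 4 mM MgCl2), without ligand or with the indicated ligand. Median apparent KD per design.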
# [2] = tested on: MS2 coat protein; assay: apparent KD of MS2 coat protein; designed switch direction (-1 OFF switch, 1 ON switch): 1; higher = weaker reporter binding
# Summary of the method: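 Designed RNA switches with common flanks were made on Illumina chips by stalled E. coli RNA polymerase. Titration with SNAP-549-labelled MS2 coat protein doubled from 0.7 or 1.5 nM up to 3 µM. Apparent KD is each design's median over clusters after curve-fitting normalised fluorescence.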
# [3] = input ligand: theophylline 20 uM
# [4] = input ligand: theophylline 2 mM
# [5] = input ligand: tryptophan 2.4 mM
Sequence,apparent KD of MS2 coat protein ([1]; input ligand: arginine 13.2 mM) [nM],apparent KD of MS2 coat protein ([1]; input ligand: none) [nM],"apparent KD of MS2 coat protein [1, 3] [nM]","apparent KD of MS2 coat protein [1, 4] [nM]","apparent KD of MS2 coat protein [1, 5] [nM]",apparent KD of MS2 coat protein ([2]; input ligand: FMN 200 uM) [nM],"apparent KD of MS2 coat protein ([2]; input ligand: microRNA oligo, concentration not stated) [nM]",apparent KD of MS2 coat protein ([2]; input ligand: none) [nM],"apparent KD of MS2 coat protein ([2]; Eterna round: R95, input ligand: microRNA oligo, concentration not stated) [nM]"
AAAAGAGGUGGAAGGAGCGGGAGACAUGAGGAUCACCCAUGUGAAGUGACGAAAGGAUCAGCCCAGGUAGGUCGCCAUGUCGAAA [yuiiumullin],31,43.9,73.2,25.9,41.3,–,–,–,–
AAAAGAGGUGGAAGGAGCGGGAGACAUGAGGAUCACCCAUGUGAAGUGACGAAAGGAUCAUCCCAGGUAGGUCGCCAUGUCGAAA [csstmullin],5.43,147,44.6,39,21.7,–,–,–,–
AAACAUGAGGAUCACCCAUGUGCUCCUGUCCGAGGACCGGUACGGCCGCCACUCGGUUCUCGGGAGGAUGGUCAAAGACUAUCCA [Omei Trp A SS B v10],60.7,50.6,44.7,57.8,48.8,–,–,–,–
AAACGCCACGGAAGGAGCGACAUGAGGAUCACCCAUGUAGAUUUGGCGGAUGCACCCUCCUGUCAGGUAGGUCGCCGUGCGAUAA [XArg-B25],33.9,60.8,109,89,86.6,–,–,–,–
AACAUGAGGAUCACCCAUGUAAAACCGGUACGAGGACCGGUACGGCCGCCACUCGAAACAUGAGGAUCACCCAUGUAAUAAUAUU [Same State Trypophan A GF 21],35.2,63.5,75,68.6,91.3,–,–,–,–
AACAUGAGGAUCACCCAUGUAUUGGGUGAUACCAGCCUGAAUAAGGGCCCUUGGCAGCACCGCGCUAACUUUAUGUCUGCGAACC [Rebiercete],511,54.1,432,368,277,–,–,–,–
AACAUGAGGAUCACCCAUGUCUGAACUGAAGGAGCGCUAAACAAGGCAGGUAGGUCGCGGAAUUUUGUGUGCAUAUGCAUAUGGG [9.J],22.8,24.4,35.3,29.6,24.7,–,–,–,–
AACCACAUGAGGAUCACCCAUGUGACCGCUCGAGGACCGGUACGGCCGCCACUCGUGGAGGGACUUAUGCGUUAUCCGGGUAAAU [theeternabot_sameState_MS2_Trp_A_29],16.9,–,27,20.9,–,–,–,–,–
AAGACGGUCGGAAGGAGCGGUACAUGAGGAUCACCCAUGUACCUCUGGGCAUCCGUAGUGUGCCAGGUAGGUCGCCGAUUGCGGG [Esorbevege],12.7,11.7,23.3,13.5,12.1,–,–,–,–
AAGGUGAUCCCAGAUACCAGCUCAACAUGAGGAUCACCCAUGUACGGGACGAAAGUCCCGGGCCCUUGGCAGCUGGGUUGCCAAG [SSTheo B #19],42.2,–,299,–,185,–,–,–,–
AAUAACAUGAGGAUCACCCAUGUAAAAGAUACCAGAGUGAUGAUCCUCCCUUGGCAGCUUAACGCUGAUUGAUUACAAUCAGCGA [TheoAS 3 #Tail #MS2BeforeAptamer #BothOrNeither],46.4,–,128,–,67.1,–,–,–,–
AAUAAUAAGGCGGCCGCCACUAAACAUGAGGAUCACCCAUGUCUCGAGCGCUUGCGUUUGGGAAGUAGGACCGGGCCAAUAAUAA [Exclusion - Tryptophan B (Freestyle 5)],14.2,14.5,16.4,18.1,14.2,–,–,–,–
AAUAAUAGGUGAUCCUGACGAGUGGCAUAACGAGGACCGGUACGGCCGCCACUCGAACAUGAGGAUCACCCAUGUAGCCACUCGA [M'-T'-T-MS2-T'' - Design 5.b],32,–,327,685,–,–,–,–,–
AAUAAUAGGUGAUCUUGUGUCGUACCGUAACGAGGACCGGUACGGCCGCCACUCGAACAUGAGGAUCACCCAUGUAUGUAUGAUA [whbob_SS_trypto A_f7],57.8,–,301,497,–,–,–,–,–
AAUCAUAACUGAAGGAGCGUCUAUAUUACAUGAGGAUCACCCAUGUUUAUAUGGUAUUAUAGACAGGUAGGUCGCAGAUUUUUUA [JR_SSArginiB_Sub017],20.7,16.8,21.6,18.7,15.8,–,–,–,–
AAUCGUAAGGCGGCCGCCACUACACAUGAGGAUCACCCAUGUCUCGCGGGCUUGCGUUGGGAUAGUAGGACCGGGCCAGUAAUAA [Exclusion - Tryptophan B (Freestyle 13)],17.1,26.2,33.7,28.3,25.1,–,–,–,–
AAUGGCCGUACCGGAAGGGUGAUCCUCAAACGAGGACCGGUACGGCCGCCACUCGAUAACAUGAGGAUCACCCAUGUAAUACAUA [whbob_X-Trypto_V2.0],96.4,–,405,699,–,–,–,–,–
AAUUACAUGAGGAUCACCCAUGUGGCACAACGAGGACCGGUACGGCCGCCACUCGGUGCUGUACCACAAAACAUGCACGGGAAAG [theeternabot_sameState_MS2_Trp_A_6],33.1,31.6,81.4,39,30.9,–,–,–,–
ACAUGAGGAUCACCCAUGUAAUUGCCGGAAGGAGCGUCAUUAAGGACAGGUAGGUCGCUGGUAGGGUCGUCGGUUACGGCGGCCA [SSArg A #10],13.3,11.1,16.8,13,13.7,–,–,–,–
ACAUGAGGAUCACCCAUGUACAUAAGGGAAGGAGCGCGGUGAAACGCAGGUAGGUCGCCCAUAAUAUCUAACAUUAAAUUCAUGU [LeftA3],16.8,16.6,27.9,20,18.8,–,–,–,–
ACAUGAGGAUCACCCAUGUAGCCUAGGGAAGGAGCGGCGUAAGAGCCAGGUAGGUCGCCCGCAUGAGGAUCACCCAUGUCGAGGG [Same State Arginine A GF10],30.9,38,40.9,33.1,29.3,–,–,–,–
ACAUGAGGAUCACCCAUGUAGCCUAGGGAAGGAGCGUCGUAAGAGACAGGUAGGUCGCCCGCAUGUGGAUCACCCAUGUCGAGGG [SSArg A #11],27.4,37.5,48.3,43.6,38.7,–,–,–,–
ACAUGAGGAUCACCCAUGUAGUGGCACGAUACCAGCUGAUCCCGUGGCCCUUGGCAGCGUCCGGUGUGGUGCGCCGGGAUGGAGC [ZSZMULLIN],21.8,28.4,50.8,40.7,35.6,–,–,–,–
ACAUGAGGAUCACCCAUGUCACUCGUGUUCCGAGGACCGGUACGGCCGCCACUCGGUCCUCGCGAGGAUGGUCAAAGACUAUCCA [Omei Trp A SS B v2],37.1,75.2,66.8,71.4,48.6,–,–,–,–
ACAUGAGGAUCACCCAUGUGAUGGCGCGAUACCAGCUGAUCCCGUGGCCCUUGGCAGCGUCCGGUGUGGUCCGGCGGGUGGGACG [khkmullin],91.4,20.8,31.7,31,24.2,–,–,–,–
ACAUGAGGAUCACCCAUGUGGCGACUUGAUACCAGACCCGCACUAGUCCCUUGGCAGCAACUACGUGUGGGACACCCAUGUGAAG [aszkullin],17.5,–,23.9,–,20.2,–,–,–,–
ACAUGAGGAUCACCCAUGUGUGUAAAUCCUCGAGGACCGGUACGGCCGCCACUCGAUCGAGUGUAAGUUGAAUGUAACAUUCAAC [whbob_SS_trypto A_2s8],42.6,–,118,108,–,–,–,–,–
ACAUGAGGAUCACCCAUGUUCCUCAUUGAUACCAGUGAAUUUAGACGCCCUUGGCAGCGAGUUUUUUUAUAAGAUUUUUUUUUUU [6.I],239,–,839,–,916,–,–,–,–
"UUUGCAUUGCAAGGAUAUUGAUAACAUGAGGAUCACCCAUGUAUAGGUUCAGGAUUUACGAGUAACAAGAAGGUGCUAUUGUUU [JR_SSNG2_Sub040] (Eterna round: R96, puzzle: Same State NG 2)",–,–,–,–,–,27.6,20.7,31.8,–
UUUGGGUGGCUGGAGGAUAUUCGAGUGGUAACAUGAGGAUCACCCAUGUGUCGCGCGGUACACGAGGAGAAGGCUGGCGGCCGUU (puzzle: Same State 2),–,–,–,–,–,–,–,–,41.7
